Data as given in US10202593B2, “Evolved sortases and uses thereof” (President and Fellows of Harvard College, priority 2013, dated 2019).
Numbering of substitutions follows the chain as printed. Names may count otherwise. Where two headings read alike, the source gives them in different places.

B1: eSrtA(4S-5): 5mut + N98D A104V A118T F122A K134R I182V (protein)
chain: QAKPQIPKDKSKVAGYIEIPDADIKEPVYPGPATREQLDRGVSFVEENESLDDQNISITGHTAIDRPNYQFTNLRAAKKGSMVYFKVGNETRKYKMTSIRNVKPTAVEVLDEQKGKDKQLTLVTCDDYNEETGVWETRKIFVATEVK
B2: eSrtA(4S-6): round 6 consensus variant targeting LPESG (protein)
chain: B1 chain with T59S, R75G, E130V
B3: 2A.6A: 5mut + A104H K138V K162R I182V (protein)
chain: B1 chain with D39N, V45H, T59A, A63F, R75K, K79V, K103R
B4: eSrtA(2A-6): round 6 consensus variant targeting LAETG; kinetics close to 2A.6A (protein)
chain: B1 chain with D39N, V45H, T59A, A63F, R75K, K79V, K103R
B5: eSrtA(2A-3.5) (protein)
chain: B1 chain with D39N, V45A, T59A, A63F, R75K, K103R, V109I, V123F
B6: eSrtA(4S-3.5) (protein)
chain: B1 chain with D39N, V45T, A63F, R75K
B7: eSrtA(4S-3): round 3 LPESG clone: eSrtA + N98S A104T A118T F122S D124G K134R K173E K177E I182V (protein)
chain: B1 chain with D39S, V45T, A63S, D65G, K114E, K118E
B8: eSrtA(4S-4): 5mut + A104V A118T F122S I182V (protein)
chain: B1 chain with D39N, A63S, R75K
B9: 4S.6B: 5mut + N98D A104V A118S F122A K134P I182V E189P (protein)
chain: B1 chain with T59S, R75P, E130P
B10: 4S.6C: 5mut + N98D A104V A118T F122A K134R I182V E189F (protein)
chain: B1 chain with E130F

Key:
Type in all cases: biochemical
[1] = tested on: LPETG (Abz-LPETGK(Dnp)-CONH2); test: In vitro sortase kinetics HPLC assay, LPETG substrate; conditions: substrate wt (LPETG)
Method: (§1) See below for details on sortase expression and purification, and on the synthesis of Abz-LPETGK(Dnp)-CONH2 (SEQ ID NO: 19). […] Reactions were initiated with the addition of enzyme and incubated at 22.5° C. for 3 to 20 minutes before quenching with 0.5 volumes of 1 M HCl. Five to ten nmol of peptide from the quenched reactions were injected onto an analytical reverse-phase Eclipse XDB-C18 HPLC column (4.6×150 mm, 5 μm, Agilent Technologies) and chromatographed using a gradient of 10 to 65% acetonitrile with 0.1% TFA in 0.1% aqueous TFA over 13 minutes. Retention times under these conditions for the Abz-LPETGK(Dnp)-CONH2 (SEQ ID NO: 19) substrate, the released GKDnp peptide, and the Abz-LPETGGG-COOH (SEQ ID NO: 20) product were 12.8, 10.4, and 9.1 min, respectively. To calculate the percent conversion, the ratio of the integrated areas of the Abz-LPETGGG-COOH (SEQ ID NO: 20) and Abz-LPETGK(Dnp)-CONH2 (SEQ ID NO: 19) peptide Abs220 peaks was compared to a standard curve generated by mixing the product and starting peptide in known ratios. To determine […] and Km, reaction rates were fit to the Michaelis-Menten equation using OriginPro 7.0 software. All kinetics values reported represent the average of at least three measurements. Percent conversion was also calculated by using the ratio of the integrated areas of the GK(Dnp)-CONH2 and Abz-LPETGK(Dnp)-CONH2 peptide Abs355 peaks were compared directly (Example 5). To determine kcat and Km, LPETG, reaction rates were fit to the Michaelis-Menten equation using Microsoft Excel using the Solver add-in. To determine Km,GGG and KH, reaction rates were fit to the modified Michaelis-Menten, for which KH is as defined when KH<<Km,GGG.
(§2) Assays to determine eSrtA, eSrtA(2A-9) and eSrtA(4S-9) specificity were performed by preparing 10 μM stocks of Abz-LXEXGK(Dnp) (SEQ ID NO: 75) peptides in 300 mM Tris pH 7.5, 150 mM NaCl, 5 mM CaCl2, 5% v/v DMSO, and 100 mM Gly-Gly-Gly-COOH (GGG). Reactions were performed by adding eSrtA(2A-9) to a final concentration of 450 nM, eSrtA(4S-9) to a final concentration of 115 nM or eSrtA to a final concentration of 47.5 nM and a final volume of 100 μL, then incubating at 22.5° C. for 15 minutes. Reactions were quenched by the addition of 0.2 volumes of 5 M HCl, then were injected onto an analytical reverse-phase Eclipse XDB-C18 HPLC column (4.6×150 mm, 5 μm, Agilent Technologies) and chromatographed using a gradient of 10 to 65% acetonitrile with 0.1% TFA in 0.1% aqueous TFA over 13 minutes. Retention times under these conditions for the Abz-LPETGK(Dnp)-CONH2 (SEQ ID NO: 19) substrate, the released GKDnp peptide, and the Abz-LPETGGG-COOH (SEQ ID NO: 20) product were 12.8, 10.4, and 9.1 min, respectively, while the remaining Abz-LXEXGK(Dnp)-CONH2 (SEQ ID NO: 74) substrates varied in retention time between 9 and 13 minutes. To calculate the percent conversion, the ratio of the integrated areas of the GK(Dnp)-CONH2 and Abz-LPETGK(Dnp)-CONH2 (SEQ ID NO: 19) peptide Abs355 peaks were compared directly. Subsequent determination of kcat/Km and KH were performed as described for in vitro SrtA characterization.
(§3) In each case, rate constants were determined by measuring enzyme velocity at eight different substrate concentrations by HPLC assay, then fit using nonlinear regression to the Michaelis-Menten equation, yielding kcat and Km. KH was calculated by measuring enzyme velocity at 1 mM target substrate and eight different GGG concentrations by HPLC assay, then fitting the resulting curves using nonlinear regression to the modified Michaelis-Menten equation.

[2] = tested on: LPESG (Abz-LPESGK(Dnp)-CONH2); test: In vitro sortase kinetics HPLC assay, LPESG substrate; conditions: for KH (KH,LPESG): LPESG substrate; for Specificity / preference for LPESG over LPETG: ratio of kcat/KM; for Specificity: 4S (LPESG) over wt (LPETG); for specificity (relative cat. Efficiency, fold): ratio of kcat/Km between 4S (LPESG) and wt (LPETG) substrates; for kHydrolysis (Hz): 1 mM
Method: as §1, §2, §3

[3] = tested on: LAETG (Abz-LAETGK(Dnp)-CONH2); test: In vitro sortase kinetics HPLC assay, LAETG substrate; conditions: for Specificity (relative catalytic efficiency, fold): ratio of kcat/KM between 2A (LAETG) and wt (LPETG)
Method: as §1, §2, §3

[4] = Example 5 variants, read-out: Avg KM
[5] = 1 mM 4S (LPESG) substrate, GGG varied
[6] = 1 mM 4S (LPESG) substrate, read-out: Km, GGG
[7] = Example 5 variants, substrate 4S (LPESG)
[8] = Example 5 variants, substrate 4S (LPESG), read-out: Avg KM
[9] = substrate 4S (LPESG), GGG varied
[10] = substrate 4S (LPESG), read-out: Km, LxExG
[11] = GGG varied, substrate 4S (LPESG)
[12] = substrate 2A (LAETG), read-out: Km, LxExG
[13] = Example 5 variants, substrate 2A (LAETG)
[14] = Example 5 variants, substrate 2A (LAETG), read-out: Avg KM
[15] = GGG varied, substrate 2A (LAETG)

Molecule | Avg kcat (Hz) ([1]; Example 5 variants) | Km [1, 4] | kcat, 10 mM GGG (Hz) [1] | Km ([1]; read-out: Km, LxExG) | Khydrolysis ([2]; 1 mM 4S (LPESG) substrate) | kcat, 1 mM LxExG (Hz) [2, 5] | Km [2, 6] | Avg kcat (Hz) [2, 7] | Km [2, 8] | Specificity [2] | specificity (relative cat. Efficiency, fold) [2] | kL/KL/KH ([2]; substrate 4S (LPESG)) | kHydrolysis (Hz) [2, 9] | kcat, 10 mM GGG (Hz) ([2]; substrate 4S (LPESG)) | Km [2, 10] | other results
B1 | 0.00606 Hz | 11.7 µM | 0.006149 Hz | 12.2 µM | 190.8 µM | 1.342 Hz | 26700 µM | 0.3877 Hz | 76 µM | 9.672 | 9.999 fold | 2.69E+07 | 0.009551 Hz | 0.3877 Hz | 76 µM | increase in kcat/Km for LPESG as compared to LPETG ([2]; FIG. 2): ~2 fold; increased affinity (KM) for the LPESG substrate as compared to the LPETG substrate ([2]; FIG. 2): ~8 fold; KH (KH,LPESG) [2]: 190 ± 16 µM
B2 | 0.9657 Hz | 1040 µM |  |  |  |  |  | 0.9425 Hz | 125 µM | 8.094 |  |  |  |  |  | Avg kHydro (Hz) [2, 11]: 0.01782 Hz; Avg kcat (Hz) [2, 11]: 2.004 Hz; Km ([2]; KM for GGG, substrate 4S (LPESG), read-out: Avg KM): 13100 µM; KH (KH,LPESG) [2]: 116 ± 10 µM; Avg KH ([2]; substrate 4S (LPESG)): 116.3542 µM
B3 |  |  | 0.1572 Hz | 3290 µM |  |  |  |  |  |  |  |  |  |  |  | Khydrolysis ([3]; 1 mM 2A (LAETG) substrate): 135.8 µM; kcat, 1 mM LxExG (Hz) ([3]; 1 mM 2A (LAETG) substrate, GGG varied): 1.714 Hz; Km ([3]; 1 mM 2A (LAETG) substrate, read-out: Km, GGG): 1040 µM; specificity (relative cat. Efficiency, fold) ([3]; ratio of kcat/Km between 2A (LAETG) and wt (LPETG) substrates, favoured over disfavoured): 86.36 fold; kL/KL/KH ([3]; substrate 2A (LAETG)): 3.04E+07; kHydrolysis (Hz) ([3]; substrate 2A (LAETG), 1 mM, GGG varied): 0.2252 Hz; kcat, 10 mM GGG (Hz) ([3]; substrate 2A (LAETG)): 2.47 Hz; Km [3, 12]: 608 µM
B4 | 0.1622 Hz | 3400 µM |  |  |  |  |  |  |  |  |  |  |  |  |  | Avg kcat (Hz) [3, 13]: 2.579 Hz; Km [3, 14]: 665 µM; KH ([3]; GGG concentration at which hydrolysis and transpeptidation rates are equal, 2A (LAETG) variant): 149 ± 63 µM; Avg kHydro (Hz) [3, 15]: 0.2347 Hz; Avg kcat (Hz) [3, 15]: 1.734 Hz; Km ([3]; KM for GGG, substrate 2A (LAETG), read-out: Avg KM): 1110 µM; Specificity (relative catalytic efficiency, fold) [3]: 82.4 fold; Avg KH ([3]; substrate 2A (LAETG)): 148.9406 µM
B5 | 1.525 Hz | 3750 µM | 1.587 Hz | 4110 µM |  |  |  |  |  |  |  |  |  |  |  | Avg kcat (Hz) [3, 13]: 1.14 Hz; Km [3, 14]: 6370 µM; lower activity than that of eSrtA on its native LPETG substrate ([3]; minimal mutant, LPETG and LAETG processed): ~100 fold; Specificity (relative catalytic efficiency, fold) [3]: 2.252 fold; kcat, 10 mM GGG (Hz) ([3]; substrate 2A (LAETG)): 1.249 Hz; Km [3, 12]: 7160 µM
B6 | 5.482 Hz | 39300 µM |  |  |  |  |  | 5.779 Hz | 38800 µM | 1.454 |  |  |  | 1.118 Hz | 7310 µM | lower activity than that of eSrtA on its native LPETG substrate ([2]; minimal mutant, LPETG and LPESG processed): ~100 fold
B7 | 0.007565 Hz | 3390 µM |  |  |  |  |  | 2.543 Hz | 3330 µM | 244.976 |  |  |  |  |  | preference for LPESG over LPETG [2]: 245 fold; reduced catalytic efficiency ([2]; round 3 clone, LPESG target): > 10 fold
B8 | 0.1073 Hz | 491 µM | 0.09571 Hz | 339 µM |  |  |  | 0.7574 Hz | 1560 µM | 2.224 | 1.823 fold |  |  | 0.7269 Hz | 1410 µM | preference for LPESG over LPETG [2]: 2 fold
B9 |  |  | 1.081 Hz | 238 µM | 122.3 µM | 2.132 Hz | 15700 µM |  |  |  | 0.9102 fold | 3.38E+07 | 0.0167 Hz | 1.242 Hz | 312 µM | increased affinity (KM) for the LPESG substrate as compared to the LPETG substrate ([2]; FIG. 2): ~2 fold
B10 |  |  | 0.003663 Hz | 16.1 µM | 334.1 µM | 1.502 Hz | 36000 µM |  |  |  | 18.52 fold | 1.30E+07 | 0.01399 Hz | 0.6657 Hz | 156 µM | 
